For five molecules, Kd results are on record in publication PMC11115230, “Mitotic deacetylase complex (MiDAC) recognizes the HIV-1 core promoter to control activated viral gene expression”.

The Kd is the concentration at which binding is half-saturated.

Series [1] concerns the target T1, DNTTIP1 (TdIF1), His-tagged (human, UniProt Q9H147 1-329).
T1 sequence: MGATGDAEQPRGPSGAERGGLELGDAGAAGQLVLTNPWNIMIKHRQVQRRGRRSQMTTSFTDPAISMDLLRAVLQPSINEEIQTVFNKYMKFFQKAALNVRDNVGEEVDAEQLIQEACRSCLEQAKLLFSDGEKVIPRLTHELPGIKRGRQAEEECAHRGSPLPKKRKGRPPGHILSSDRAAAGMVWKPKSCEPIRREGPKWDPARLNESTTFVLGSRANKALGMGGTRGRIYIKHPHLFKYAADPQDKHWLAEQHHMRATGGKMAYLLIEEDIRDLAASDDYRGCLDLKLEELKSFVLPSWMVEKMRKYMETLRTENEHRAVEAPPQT
In words: equimolar DNA; Tm 39.2 C; unit inferred, M assumed; Anisotropy: 15 nM DNA, 10 mM Na-PO4 pH 6.5, 150 mM KCl, 250 uM TCEP, 5% glycerol. Pull-down: 20 mM HEPES pH 7.9, 100 mM KCl, 10% glycerol, 0.05% CHAPS, poly(dIdC), oligo B, acetylated BSA, room temperature. As to conditions: protein: recombinant; tags: N-term 6xHis; chain copies: 2; label: fluorescein on first T of sense strand (anisotropy only); blunt.

Series [2] concerns the target T1, DNTTIP1 (TdIF1), His-tagged. In words: fluorescence anisotropy; Hill n 1.63; error = fit SE x15; Anisotropy: 15 nM DNA, 10 mM Na-PO4 pH 6.5, 150 mM KCl, 250 uM TCEP, 5% glycerol. Pull-down: 20 mM HEPES pH 7.9, 100 mM KCl, 10% glycerol, 0.05% CHAPS, poly(dIdC), oligo B, acetylated BSA, room temperature. Conditions: protein: recombinant; tags: N-term 6xHis; chain copies: 2; label: fluorescein on first T of sense strand (anisotropy only); blunt.

The target is the same in series [3]. The series can be described thus: fluorescence anisotropy; Hill n 2.39; error = fit SE x15; Anisotropy: 15 nM DNA, 10 mM Na-PO4 pH 6.5, 150 mM KCl, 250 uM TCEP, 5% glycerol. Pull-down: 20 mM HEPES pH 7.9, 100 mM KCl, 10% glycerol, 0.05% CHAPS, poly(dIdC), oligo B, acetylated BSA, room temperature. Conditions: protein: recombinant; tags: N-term 6xHis; chain copies: 2; label: fluorescein on first T of sense strand; blunt. (Fluorescence polarisation rises when a labelled molecule tumbles more slowly, as on binding a larger partner.)

Series [4] has the same target. The series can be described thus: fluorescence anisotropy; Hill n 1.89; error = fit SE x15; Anisotropy: 15 nM DNA, 10 mM Na-PO4 pH 6.5, 150 mM KCl, 250 uM TCEP, 5% glycerol. Pull-down: 20 mM HEPES pH 7.9, 100 mM KCl, 10% glycerol, 0.05% CHAPS, poly(dIdC), oligo B, acetylated BSA, room temperature. Conditions: protein: recombinant; tags: N-term 6xHis; chain copies: 2; label: fluorescein on first T of sense strand (anisotropy only); blunt.

The target is the same in series [5]. In words: equimolar DNA; Tm 32.7 to 43.5 C; unit inferred, M assumed; Anisotropy: 15 nM DNA, 10 mM Na-PO4 pH 6.5, 150 mM KCl, 250 uM TCEP, 5% glycerol. Pull-down: 20 mM HEPES pH 7.9, 100 mM KCl, 10% glycerol, 0.05% CHAPS, poly(dIdC), oligo B, acetylated BSA, room temperature. Conditions: protein: recombinant; tags: N-term 6xHis; chain copies: 2; label: fluorescein on first T of sense strand (anisotropy only); blunt.

For series [6] the target is unchanged. In words: fluorescence anisotropy; Hill n 1.78; error = fit SE x15; Anisotropy: 15 nM DNA, 10 mM Na-PO4 pH 6.5, 150 mM KCl, 250 uM TCEP, 5% glycerol. Pull-down: 20 mM HEPES pH 7.9, 100 mM KCl, 10% glycerol, 0.05% CHAPS, poly(dIdC), oligo B, acetylated BSA, room temperature. Conditions: protein: recombinant; tags: N-term 6xHis; chain copies: 2; label: fluorescein on first T of sense strand; blunt.

Series [7] shares this target. The series can be described thus: CD thermal denaturation; equimolar DNA; unit inferred, M assumed; Anisotropy: 15 nM DNA, 10 mM Na-PO4 pH 6.5, 150 mM KCl, 250 uM TCEP, 5% glycerol. Pull-down: 20 mM HEPES pH 7.9, 100 mM KCl, 10% glycerol, 0.05% CHAPS, poly(dIdC), oligo B, acetylated BSA, room temperature. As to conditions: protein: recombinant; tags: N-term 6xHis; chain copies: 2; blunt.

B1: ATCC_25 (dsDNA)
DNA 1: AGATGATCCATATAAGGATATCCTT
DNA 2: AAGGATATCCTTATATGGATCATCT
Take B1: the figures for the Kd in series [1] and in series [2] were about 791 nM and 137 ± 16.6 nM, respectively.

B2: CATAKO_25 (dsDNA)
DNA 1: AGATGCTGAGAGCTCGCAGCTGCTT
DNA 2: AAGCAGCTGCGAGCTCTCAGCATCT
For B2, the Kd in series [3] was determined as 117 ± 15.6 nM.

B3: TASHET_25 wt (dsDNA)
DNA 1: AGATGCTGCATATAAGCAGCTGCTT
DNA 2: AAGCAGCTGCTTATATGCAGCATCT
For the molecule B3, the values for the Kd in series [4] and in series [5] were 51.1 ± 4.2 nM and about 0.392 nM, respectively.

B4: Scr_25 (dsDNA)
DNA 1: AGATCAGCAGAGCTCTGGTAGCTAT
DNA 2: ATAGCTACCAGAGCTCTGCTGATCT
B4: in series [6], the Kd is 156 ± 15.6 nM.

B5: DNTTIP_cons (dsDNA)
DNA 1: CGCCAAATAAAAGTTGCATGGTCG
DNA 2: CGACCATGCAACTTTTATTTGGCG
In the case of B5, the Kd in series [7] is about 7.38 nM.
